According to patent US20050164166A1 (US Dept. of Health and Human Services, published 2005):

Legend:
Test in all cases: cell-based or functional assay
Env TH022.4 (clade EA) = Env TH022.4 (clade EA) (HIV-1)
Env 89.6 (clade B) = Env 89.6 (clade B) (HIV-1, UniProt Q73372 32-853)
Env NL4-3 (clade B) = Env NL4-3 (clade B) (HIV-1)
Env BR019.4 (clade F/B) = Env BR019.4 (clade F/B) (HIV-1)
Env HT593.1 (clade B) = Env HT593.1 (clade B) (HIV-1)
Env US715.6 (clade B) = Env US715.6 (clade B) (HIV-1)
Env UG975.10 (clade G) = Env UG975.10 (clade G) (HIV-1)
Env US005.11 (clade B) = Env US005.11 (clade B) (HIV-1)
Env RW020.5 (clade A) = Env RW020.5 (clade A) (HIV-1)
Env UG037.8 (clade A) = Env UG037.8 (clade A) (HIV-1)
Env BR025.9 (clade C) = Env BR025.9 (clade C) (HIV-1)

| Binder | % of fusion inhibition (cell-cell fusion assay, syncytia count, antibody at 50 ug/ml) (Env TH022.4 (clade EA)) [%] | % of fusion inhibition (cell-cell fusion assay, syncytia count, antibody at 50 ug/ml) (Env 89.6 (clade B)) [%] | % of fusion inhibition (cell-cell fusion assay, syncytia count, antibody at 50 ug/ml) (Env NL4-3 (clade B)) [%] | % of fusion inhibition (cell-cell fusion assay, syncytia count, antibody at 50 ug/ml) (Env BR019.4 (clade F/B)) [%] | % of fusion inhibition (cell-cell fusion assay, syncytia count, antibody at 50 ug/ml) (Env HT593.1 (clade B)) [%] | % of fusion inhibition (cell-cell fusion assay, syncytia count, antibody at 50 ug/ml) (Env US715.6 (clade B)) [%] | % of fusion inhibition (cell-cell fusion assay, syncytia count, antibody at 50 ug/ml) (Env UG975.10 (clade G)) [%] | % of fusion inhibition (cell-cell fusion assay, syncytia count, antibody at 50 ug/ml) (Env US005.11 (clade B)) [%] | % of fusion inhibition (cell-cell fusion assay, syncytia count, antibody at 50 ug/ml) (Env RW020.5 (clade A)) [%] | % of fusion inhibition (cell-cell fusion assay, syncytia count, antibody at 50 ug/ml) (Env UG037.8 (clade A)) [%] | % of fusion inhibition (cell-cell fusion assay, syncytia count, antibody at 50 ug/ml) (Env BR025.9 (clade C)) [%] |
| --- | --- | --- | --- | --- | --- | --- | --- | --- | --- | --- | --- |
| soluble scFv m6 (scFv, not shown: small tags and cut ends) scFv: VLTQSPGTLSLSAGERATLSCRASQSVSSGSLAWYQQKPGQAPRLLIYGASTRATGIPDRFSGSGSGTDFTLTIGRLEPEDLAVYYCQQYGTSPYTFGQGTKLEIKRTGGGGSSGGASGGGGSVRLLEQSGAEVKKPGSSVQVSCKASGGTFSMYGVNWVRQAPGHGLEWMGGIIPIFGTSNYAQKFRGRVTFTADQATSTAYMELTNLRSDDTAVYYCARDFGPDWEDGDSYDGSGRGFFDFWGQGTLVTVSS | 72 | 98 | 100 | 37 | 50 | 27 | 48 | 83 | 56 | 66 | 57 |
| Fab X5 (Fab, V domains shown) VH: VQLLEQSGAEVKKPGSSVQVSCKASGGTFSMYGFNWVRQAPGHGLEWMGGIIPIFGTSNYAQKFRGRVTFTADQATSTAYMELTNLRSDDTAVYYCARDFGPDWEDGDSYDGSGRGFFDFWGQGTLVTVSS VL: ELVLTQSPGTLSLSAGERATLSCRASQSVSSGSLAWYQQKPGQAPRLLIYGASTRATGIPDRFSGSGSGTDFTLTIGRLEPEDLAVYYCQQYGTSPYTFGQGTKLEIKR | 43 | 93 | 83 | 37 | 27 | 56 | 19 | 72 | 45 | 34 | 71 |
